Experimental data reported in patent US20260207798A1, “CYCLIC PEPTIDES AS PET IMAGING AGENTS OF GRANZYME B” (priority 2022, published 2026).
Blank lines part the entries; values can stand above or below the molecule they belong to. Bridge positions count the residues as written; N and C are the ends. Square brackets hold non-standard residues; d marks the D form. NOTA‑1 = 1,4,7-triazacyclononane-N,N',N''-triacetic acid phenyl thiourea; Pro(trans-4-Ph) = O=C(O)[C@@H]1C[C@@H](c2ccccc2)CN1; Trp(7-Me) = Cc1cccc2c(C[C@H](N)C(=O)O)c[nH]c12; Pro(cis-4-F) = O=C(O)[C@@H]1C[C@H](F)CN1; Phe(4-Me) = Cc1ccc(C[C@H](N)C(=O)O)cc1; Pro(4S-Me) = C[C@@H]1CN[C@H](C(=O)O)C1; Pro(4R-Me) = C[C@H]1CN[C@H](C(=O)O)C1

Tests used:
Human Granzyme B [1] = biological target: T1, Human Granzyme B (Homo sapiens, UniProt P10144); format: in vivo; parameters: Ten million human peripheral blood mononuclear cell (PBMC) were engrafted in immunocompromised NOG (NOD/Shi-scid/IL-2Rγ) mice; endogenous in cells; host or cells: human PBMC (donor-derived) engrafted in NOG mice; conditions: 18F-labeled peptides, i.v., mice, static PET/CT 1 h after injection
Method: Diseased model: Graft versus host disease (GvHD) model was selected to evaluate radiolabeled granzyme-B peptides due to presence of human granzyme-B after onset of disease. Ten million human peripheral blood mononuclear cell (PBMC) were engrafted in immunocompromised NOG (NOD/Shi-scid/IL-2Rγ) mice. Body weight was monitored routinely, once the mice started to lose weight (indication of onset of disease), PET/CT scans were performed. To determine target specificity, NOG mice without human PBMC were used as control. […] Mice were intravenously injected with approximately 150 uCi (35 Ci/mmol) of ^18F-labeled peptides and 45-minute whole body static PET/CT scans were performed 1 h after injection. Attenuation correction was performed using low-dose CT scan.

Human Granzyme B [2] = biological target: T1, Human Granzyme B; experiment: Binding of scrambled control peptide to human granzyme-B (method not given); parameters: Ten million human peripheral blood mononuclear cell (PBMC) were engrafted in immunocompromised NOG (NOD/Shi-scid/IL-2Rγ) mice; endogenous in cells; host or cells: human PBMC (donor-derived) engrafted in NOG mice
human Granzyme B [3] = biological target: T2, human Granzyme B (human, UniProt P10144 21-247); experiment: SPR, Biacore 8k+, hGranzyme B captured on SA chip, single cycle kinetics, 1:1 model; Compound 42a, observed m/z 944.0
T2 construct: Captured on a Series S Streptavidin chip for SPR; also called hGranzyme B; GzmB
Method: (§1) The kinetics of test peptide binding to human Granzyme B (hGranzyme B) was determined by SPR. All experiments were performed at 25° C. using the Biacore 8k+ instrument (Cytiva, Marlborough, MA). The Biacore 8k+ Insight Evaluation Software Version 3.0 was used to fit the data with a 1:1 binding model to determine the association rate constant kₐ (M⁻¹s⁻¹, where “M” ~equals molar and “s” ~equals seconds) and the dissociation rate constant kd (s⁻¹). These rate constants were used to calculate the equilibrium dissociation constant. KD (M)=kd/kₐ.
(§2) To measure the binding kinetics of peptides of interest, surfaces were prepared by a capture method to a Series S Streptavidin (SA) chip using a 1×HBS-EP+ running buffer (Cytiva). hGranzyme B was diluted to 10 μg/mL in IX HBS-EP+ and flowed over spot 2 of each flow cell on the chip at a flow rate of 10 ul/min for 20 s to achieve a level of capture of ~1100 RU. […] Binding kinetics were measured using single cycle kinetics at 25° C. by injecting 5 concentrations with 3-fold serial dilutions of test peptides from 0.01 μM to 1 μM. […]
(§3) Peptide dilution series included 2 zero concentration points (no compound) which were averaged and subtracted from the peptide concentration injection as DMSO control responses. […] Corrected response data were analyzed using the Biacore 8k+ Evaluation Software Version 3.0 according to the manufacturer. […]

human Granzyme B [4] = biological target: T2, human Granzyme B; experiment: SPR, Biacore 8k+, hGranzyme B captured on SA chip, single cycle kinetics, 1:1 model; Compound 83a, observed m/z 913.2
Method: as §1, §2, §3

human Granzyme B [5] = biological target: T2, human Granzyme B; experiment: SPR, Biacore 8k+, hGranzyme B captured on SA chip, single cycle kinetics, 1:1 model; Compound 66a, observed m/z 912.5
Method: as §1, §2, §3

human Granzyme B [6] = biological target: T2, human Granzyme B; experiment: SPR, Biacore 8k+, hGranzyme B captured on SA chip, single cycle kinetics, 1:1 model; Compound 69a, observed m/z 912.6
Method: as §1, §2, §3

human Granzyme B [7] = biological target: T2, human Granzyme B; experiment: SPR, Biacore 8k+, hGranzyme B captured on SA chip, single cycle kinetics, 1:1 model; Compound 86a, observed m/z 912.9
Method: as §1, §2, §3

human Granzyme B [8] = biological target: T2, human Granzyme B; experiment: SPR, Biacore 8k+, hGranzyme B captured on SA chip, single cycle kinetics, 1:1 model; Compound 62a, observed m/z 914.7
Method: as §1, §2, §3

T2 sequence (P10144 21-247 limits assumed): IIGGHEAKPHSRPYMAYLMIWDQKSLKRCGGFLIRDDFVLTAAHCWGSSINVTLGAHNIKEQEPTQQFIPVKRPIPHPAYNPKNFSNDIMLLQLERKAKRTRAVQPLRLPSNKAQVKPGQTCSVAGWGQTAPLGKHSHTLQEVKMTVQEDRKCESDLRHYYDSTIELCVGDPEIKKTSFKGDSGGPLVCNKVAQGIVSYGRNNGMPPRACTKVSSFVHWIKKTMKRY
T1 sequence (P10144 21-247): as the sequence (P10144 21-247 limits assumed) above

Molecule: {CH2CO}-FNFEDQSPDTWQ[Pro(trans-4-Ph)]CG-NH2 (thioether N-14) [Compound 42a]
Kd (human Granzyme B [3]): 2.6 nM

Molecule: {CH2CO}-FNFEDQS[Pro(4R-Me)]DTWQPCG-NH2 (thioether N-14) [Compound 83a]
Kd (human Granzyme B [4]): 48 nM

Molecule: {CH2CO}-FNFEDQSPDT[Trp(7-Me)]QPCG-NH2 (thioether N-14) [Compound 66a]
Kd (human Granzyme B [5]): 11.1 nM

Molecule: {CH2CO}-FNFEDQS[Pro(cis-4-F)]DTWQPCG-NH2 (thioether N-14) [Compound 62a]
Kd (human Granzyme B [8]): 6.7 nM

Second part, led by results:

binding to human granzyme-B (Human Granzyme B [2]): minimal/no binding
Molecule: *F.Q.W.Q.A.S.N.E.D.D.T.P.F.*C.G.G.K(NOTA-1)·NH2) ({CH2CO}-FQWQASNEDDTPFCGGK(NOTA‑1)-NH2; thioether N-14) [scrambled peptide, 18F-labeled scrambled peptide used as negative control, reference compound]
uptake (SUVmean) in lung, liver and bone, GvHD model versus NOG control (Human Granzyme B [1]): No significant difference was observed between lung, liver, and bone in GvHD model and NOG control

Kd (human Granzyme B [6]): 17.2 nM
Molecule: {CH2CO}-FNFEDQS[Pro(4S-Me)]DTWQPCG-NH2 (thioether N-14) [Compound 69a]

Kd (human Granzyme B [7]): 579 nM
Molecule: {CH2CO}-FN[Phe(4-Me)]EDQSPDTWQPCG-NH2 (thioether N-14) [Compound 86a]
